In patent publication US20240199757A1 (UNIVERSITY OF CHICAGO, published 2024):
Read-outs that look alike come from different tables or passages of the source.

How the values were obtained:
[1] = biological target: T1, murine NT5E expressed on 4T1 cells (murine, UniProt Q61503 29-551); assay: flow cytometry on 4T1 cells, single Fab concentration, -ATP
T1 construct: whole, on cells; also called mouse NT5E-expressing 4T1 cells
T1 sequence (looked up): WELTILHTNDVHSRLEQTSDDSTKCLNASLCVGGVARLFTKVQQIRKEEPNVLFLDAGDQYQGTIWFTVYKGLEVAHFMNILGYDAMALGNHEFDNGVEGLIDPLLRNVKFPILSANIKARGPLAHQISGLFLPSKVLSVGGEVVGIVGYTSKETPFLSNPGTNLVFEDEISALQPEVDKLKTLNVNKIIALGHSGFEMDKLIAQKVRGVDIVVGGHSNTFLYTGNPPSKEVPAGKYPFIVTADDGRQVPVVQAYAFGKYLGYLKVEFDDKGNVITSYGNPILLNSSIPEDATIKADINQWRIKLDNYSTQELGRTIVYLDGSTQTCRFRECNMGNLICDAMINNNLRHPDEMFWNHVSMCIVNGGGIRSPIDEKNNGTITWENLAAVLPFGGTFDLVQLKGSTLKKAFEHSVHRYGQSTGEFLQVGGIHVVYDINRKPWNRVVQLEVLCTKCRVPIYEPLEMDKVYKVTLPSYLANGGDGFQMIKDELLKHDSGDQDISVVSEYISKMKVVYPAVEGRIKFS
Procedure: (§1) Human MDA-MB-231 cells and murine 4T1 cells were grown to 90% confluency, detached with 5 mM EDTA for 15 min at 37° C. and then resuspended in 37° C. lx PBS (#10010031, Gibco) supplemented with 1% FBS and 1OpM ZnCl2. Separate working buffers (WB) of PBS and 1% FBS with or without fixed nucleotide concentrations were used throughout all washing steps to maintain constant condition. In 96-well plates (#3799, Costar), 0.2×10⁶ cells were added per well. The plates were spun at 500×g for 5 min and the supernatant was removed. Anti-NT5E antibodies were diluted to the desired concentration in 100 μL WB, added to the cells and the plates were incubated for 20 min at 37° C. Plates were spun and cells were washed twice with WB then spun a second time. Cells were stained with 100 μL of secondary antibody (Alexa Fluor 647 AffiniPure Goat Anti-Human IgG, F(ab′)2 fragment specific, #109-605-006, Jackson, 1:200) dilution and plates were incubated for 20 min at 37° C. Cells were washed twice with WB then fixed on ice with WB supplemented with 0.5% PFA. Fixing solution was removed by centrifugation and cells were resuspended in cold 1× PBS. Samples were analyzed by flow cytometry using CytoFLEX (Beckman Coulter) and mean fluorescence intensity (MFI) data was extracted using FlowJo software. Resulting binding data was plotted using OriginLab.

[2] = biological target: T2, human NT5E expressed on MDA-MB-231 cells (human, UniProt P21589 27-549); assay: flow cytometry on MDA-MB-231 cells, 1 mM ATP
T2 construct: whole, on cells; also called NT5E-expressing MDA-MB-231 cells; CD73
T2 sequence (looked up): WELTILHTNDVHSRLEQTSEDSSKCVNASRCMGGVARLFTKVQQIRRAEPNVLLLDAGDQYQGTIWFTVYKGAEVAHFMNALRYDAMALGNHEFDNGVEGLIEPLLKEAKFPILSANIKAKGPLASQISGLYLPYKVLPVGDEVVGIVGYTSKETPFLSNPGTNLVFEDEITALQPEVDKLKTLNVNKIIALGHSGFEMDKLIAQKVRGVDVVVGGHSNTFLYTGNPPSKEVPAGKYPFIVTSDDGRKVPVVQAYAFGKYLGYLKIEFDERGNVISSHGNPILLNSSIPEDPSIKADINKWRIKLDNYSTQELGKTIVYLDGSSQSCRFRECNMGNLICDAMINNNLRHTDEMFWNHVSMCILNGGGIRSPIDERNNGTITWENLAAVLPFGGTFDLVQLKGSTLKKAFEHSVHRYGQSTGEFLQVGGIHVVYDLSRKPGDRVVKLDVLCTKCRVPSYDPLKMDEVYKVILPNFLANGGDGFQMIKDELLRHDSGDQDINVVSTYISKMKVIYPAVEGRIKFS
Procedure: (§2) Flow cytometry analysis of antibodies binding to human NT5E expressed on MDA-MB-231 cells in ATP-free condition (black) or in 1 mM ATP (red). Top panel: (left) 1780 Fab and (right) 1780 IgG titrations. […] Binding was measured at the indicated range of antibody concentrations and is expressed as mean±st. dev of median fluorescence intensity (MFI) of 1-2 replicates. Data were analyzed using OriginLab, and EC₅₀ values are shown next to the fitted curves.
as §1

[3] = biological target: T2, human NT5E expressed on MDA-MB-231 cells; assay: flow cytometry on MDA-MB-231 cells, 1 mM ATP; remark: listed apart in the source
Procedure: as §2, §1

binding result [1]: no binding (tested: 200 nM)
EC50 [2]: 37 nM
EC50 [3]: 40.8 nM
B1: 1780 Fab (Fab, V domains shown)
VH: EVQLVESGGGLVQPGGSLRLSCAASGFNFYSYSIHWVRQAPGKGLEWVASISSSSGYTYYADSVKGRFTISADTSKNTAYLQMNSLRAEDTAVYYCARYSWWGWHMEGWWGYMNAFDYWGQGTLVTV
VL: DIQMTQSPSSLSASVGDRVTITCRASQSVSSAVAWYQQKPGKAPKLLIYSASSLYSGVPSRFSGSRSGTDFTLTISSLQPEDFATYYCQQAHPKPITFGQGTKVEIKR
